Article PMC10493163

Molecular target: angiotensin-converting enzyme 2 (ACE2), noncovalently adsorbed on (GT)6-SWCNTs (human) (UniProt Q9BYF1)
Assay: other fluorescence titration

Chain of UniProt Q9BYF1 (Q9BYF1 18-805): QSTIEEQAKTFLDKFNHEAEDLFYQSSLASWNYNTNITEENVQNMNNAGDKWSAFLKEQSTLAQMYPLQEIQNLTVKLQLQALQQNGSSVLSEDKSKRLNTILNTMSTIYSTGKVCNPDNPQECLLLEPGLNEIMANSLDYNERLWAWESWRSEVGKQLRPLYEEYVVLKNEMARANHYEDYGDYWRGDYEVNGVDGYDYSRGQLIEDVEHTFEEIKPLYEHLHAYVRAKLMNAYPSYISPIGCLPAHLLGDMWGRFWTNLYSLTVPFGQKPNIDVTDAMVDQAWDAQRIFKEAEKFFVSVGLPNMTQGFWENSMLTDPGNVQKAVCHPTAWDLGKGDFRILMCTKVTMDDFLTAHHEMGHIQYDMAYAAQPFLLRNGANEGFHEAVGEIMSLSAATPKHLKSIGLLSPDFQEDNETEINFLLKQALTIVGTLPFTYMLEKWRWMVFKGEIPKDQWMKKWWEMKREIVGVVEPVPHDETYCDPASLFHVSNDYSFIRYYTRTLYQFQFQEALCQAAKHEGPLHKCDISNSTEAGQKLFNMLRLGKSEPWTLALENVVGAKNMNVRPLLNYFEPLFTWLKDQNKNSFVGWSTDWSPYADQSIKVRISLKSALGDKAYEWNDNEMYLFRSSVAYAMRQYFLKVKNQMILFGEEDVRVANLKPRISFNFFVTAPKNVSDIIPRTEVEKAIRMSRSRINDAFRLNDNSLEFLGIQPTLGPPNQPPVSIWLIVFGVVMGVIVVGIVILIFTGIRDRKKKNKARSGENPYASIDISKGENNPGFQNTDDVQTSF

Question: “SARS-CoV-1 spike protein receptor-binding domain (domain or fragment)” was tested. Which dF/F0 of the 1130 nm SWCNT emission peak after 90 min, 10 mg/L did it give?
Answer: 88.4%
